The target of test [1] is T1, LDL (apolipoprotein B-100) (Homo sapiens, UniProt P04114).
Test [2] concerns the target T1, LDL (apolipoprotein B-100). This is another data set of the same source.

Usually Kd stands for the equilibrium constant for the complex coming apart. Low readings indicate tighter binding, high ones weaker binding.

Where two headings read alike, the source gives them in different places.

B1: LDL receptor 1-789 (protein)
chain: not shown
Regarding B1, the Kd in test [1] was 0.58 nM; in test [2], 7.01 nM.

The values are drawn from article PMC6192581 (2018).
